B1: glmS ribozyme (parent)
chain: AUAAAAGCGCCAGAACUACAGAAAUGUAGUUGACGAGGAGGAGGUUUAUCGAAUUUUCGGCGGAUGCCUCCAAA

Holding throughout (settings): with glucosamine-6-phosphate
Variants of B1 are the subject of data set [1]. The data set is described as follows: kcat; higher = faster cleavage; RNA array. The method in brief: (§1)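 On sequenced MiSeq chips, barcoded ribozyme variants were made in situ by E. coli RNA polymerase and followed at 37 °C through a hybridised Cy3 probe. Glucosamine-6-phosphate was flowed in at 40 μM to 10 mM in HEPES/KCl/Mg(OAc)2 buffer. Exponential fits to normalised per-tile medians gave kobs, and weighted Michaelis–Menten fits gave kcat and KM.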

Variants of B1 are the subject of data set [2]. The data set is described as follows: self-cleavage kobs at 40 uM GlcN6P; higher = faster cleavage; RNA array. The method, boiled down:
as §1

In data set [3] the parent is B1. The data set is described as follows: KM; higher = weaker cofactor use; RNA array. The method in brief:
as §1

Variants of B1 are the subject of data set [4]. The data set is described as follows: self-cleavage kobs at 640 uM GlcN6P; higher = faster cleavage; RNA array. The method, boiled down: as §1
In data set [5] the parent is B1. Briefly: self-cleavage kobs at 2500 uM GlcN6P; higher = faster cleavage; RNA array. The method in brief:
as §1

Data set [6] covers variants of B1. Briefly: self-cleavage kobs at 10000 uM GlcN6P; higher = faster cleavage; RNA array. The method, boiled down: as §1
Variants of B1 are the subject of data set [7]. The data set is described as follows: self-cleavage kobs at 160 uM GlcN6P; higher = faster cleavage; RNA array. The method, boiled down: as §1

± gives the standard error. For some assays here: This sample holds only a part of the variants without activity. Where only a bound is given, the exact number is not on record here.

For the variant C10U A53U G59C C68G, in the data set with glucosamine-6-phosphate [1], the kcat was under 1e-05 s⁻¹. The “self-cleavage kobs at 40 uM GlcN6P” value with glucosamine-6-phosphate [2] is under 1e-05 s⁻¹.

On to A52U U69C, for which the kcat with glucosamine-6-phosphate [1] turned out to be 0.000239 ± 2.7e-05 s⁻¹. Moreover, in the data set with glucosamine-6-phosphate [3], the KM stood at 1990 ± 540 µM. Besides, the “self-cleavage kobs at 640 uM GlcN6P” value in the data set with glucosamine-6-phosphate [4] worked out at 5.38e-05 ± 2.2e-05 s⁻¹. The “self-cleavage kobs at 2500 uM GlcN6P” value in the data set with glucosamine-6-phosphate [5] is 0.000152 ± 3.9e-05 s⁻¹. The “self-cleavage kobs at 10000 uM GlcN6P” value in the data set with glucosamine-6-phosphate [6] was 0.000191 ± 4.2e-05 s⁻¹.

A14U C50G: in the data set with glucosamine-6-phosphate [1], the kcat is 0.000106 ± 3e-05 s⁻¹. The “self-cleavage kobs at 40 uM GlcN6P” value with glucosamine-6-phosphate [2] was 4.12e-05 ± 1.3e-05 s⁻¹. For the same variant, the “self-cleavage kobs at 160 uM GlcN6P” value with glucosamine-6-phosphate [7] was 0.000164 ± 3e-05 s⁻¹. Further, the “self-cleavage kobs at 2500 uM GlcN6P” value in the data set with glucosamine-6-phosphate [5] was 9.1e-05 ± 1.6e-05 s⁻¹. Also, the “self-cleavage kobs at 10000 uM GlcN6P” value with glucosamine-6-phosphate [6] was determined as 0.000112 ± 5e-05 s⁻¹.

As to G9U A14G, in the data set with glucosamine-6-phosphate [1], the kcat was found to be 1.09e-05 ± 5.1e-06 s⁻¹. Besides, the “self-cleavage kobs at 40 uM GlcN6P” value with glucosamine-6-phosphate [2] is under 1e-05 s⁻¹. Also, in the data set with glucosamine-6-phosphate [5], the “self-cleavage kobs at 2500 uM GlcN6P” value was under 1e-05 s⁻¹. Moreover, the “self-cleavage kobs at 10000 uM GlcN6P” value with glucosamine-6-phosphate [6] was under 1e-05 s⁻¹.

As for U30A A33C, the kcat with glucosamine-6-phosphate [1] is 6.48e-05 ± 3e-06 s⁻¹. The Michaelis constant (KM) with glucosamine-6-phosphate [3] was found to be 4930 ± 560 µM. Also, the “self-cleavage kobs at 10000 uM GlcN6P” value in the data set with glucosamine-6-phosphate [6] amounted to 4.35e-05 ± 1.2e-05 s⁻¹.

As to A14G A64G, the kcat in the data set with glucosamine-6-phosphate [1] came out at 0.0806 ± 0.028 s⁻¹. Moreover, in the data set with glucosamine-6-phosphate [3], the KM worked out at 2030 ± 810 µM. The “self-cleavage kobs at 40 uM GlcN6P” value with glucosamine-6-phosphate [2] amounted to 0.00184 ± 0.00024 s⁻¹. Also, the “self-cleavage kobs at 160 uM GlcN6P” value with glucosamine-6-phosphate [7] came out at 0.00428 ± 0.001 s⁻¹. In addition, the “self-cleavage kobs at 640 uM GlcN6P” value in the data set with glucosamine-6-phosphate [4] came to 0.0212 ± 0.0065 s⁻¹. Besides, the “self-cleavage kobs at 10000 uM GlcN6P” value with glucosamine-6-phosphate [6] worked out at 0.0677 ± 0.017 s⁻¹.

For the variant A42U U45G, the kcat with glucosamine-6-phosphate [1] was 0.00034 ± 6.6e-05 s⁻¹. Moreover, the Michaelis-Menten constant (KM) in the data set with glucosamine-6-phosphate [3] was determined as 1880 ± 720 µM. Further, the “self-cleavage kobs at 160 uM GlcN6P” value in the data set with glucosamine-6-phosphate [7] was found to be 4.68e-05 ± 1.4e-05 s⁻¹. The “self-cleavage kobs at 640 uM GlcN6P” value with glucosamine-6-phosphate [4] came out at 7.31e-05 ± 1.5e-05 s⁻¹. In the data set with glucosamine-6-phosphate [5], the “self-cleavage kobs at 2500 uM GlcN6P” value was determined as 0.000225 ± 3.8e-05 s⁻¹. Besides, in the data set with glucosamine-6-phosphate [6], the “self-cleavage kobs at 10000 uM GlcN6P” value worked out at 0.000278 ± 4.1e-05 s⁻¹.

As for U46C U55A, the kcat in the data set with glucosamine-6-phosphate [1] came out at 0.00288 ± 0.00026 s⁻¹. Besides, the Michaelis constant (KM) in the data set with glucosamine-6-phosphate [3] is 1110 ± 150 µM. Also, the “self-cleavage kobs at 40 uM GlcN6P” value with glucosamine-6-phosphate [2] turned out to be 9.7e-05 ± 1.5e-05 s⁻¹. Further, the “self-cleavage kobs at 640 uM GlcN6P” value in the data set with glucosamine-6-phosphate [4] amounted to 0.0011 ± 0.0002 s⁻¹. Further, in the data set with glucosamine-6-phosphate [5], the “self-cleavage kobs at 2500 uM GlcN6P” value amounted to 0.00248 ± 0.00076 s⁻¹. Besides, in the data set with glucosamine-6-phosphate [6], the “self-cleavage kobs at 10000 uM GlcN6P” value is 0.00247 ± 0.00041 s⁻¹.

For C16G A64G, in the data set with glucosamine-6-phosphate [1], the kcat was 0.00475 ± 0.0023 s⁻¹. Besides, the “self-cleavage kobs at 40 uM GlcN6P” value with glucosamine-6-phosphate [2] was found to be 0.000127 ± 1.8e-05 s⁻¹. The “self-cleavage kobs at 160 uM GlcN6P” value in the data set with glucosamine-6-phosphate [7] was determined as 0.000468 ± 0.00021 s⁻¹. Besides, in the data set with glucosamine-6-phosphate [4], the “self-cleavage kobs at 640 uM GlcN6P” value turned out to be 0.00103 ± 0.00014 s⁻¹. For the same variant, the “self-cleavage kobs at 2500 uM GlcN6P” value with glucosamine-6-phosphate [5] amounted to 0.00156 ± 0.00036 s⁻¹. Besides, in the data set with glucosamine-6-phosphate [6], the “self-cleavage kobs at 10000 uM GlcN6P” value stood at 0.00584 ± 0.00071 s⁻¹.

Turning to G51A A53G, in the data set with glucosamine-6-phosphate [1], the kcat is 1.13e-05 ± 5.2e-06 s⁻¹.

As for G32A C50U C70A, the kcat with glucosamine-6-phosphate [1] worked out at 3.48e-05 ± 1.3e-05 s⁻¹. The “self-cleavage kobs at 2500 uM GlcN6P” value with glucosamine-6-phosphate [5] came out at 5.7e-05 ± 1.9e-05 s⁻¹.

With A52U U54G, in the data set with glucosamine-6-phosphate [1], the kcat came out at 0.000276 ± 3.6e-05 s⁻¹. Further, in the data set with glucosamine-6-phosphate [3], the KM stood at 3750 ± 860 µM. Besides, the “self-cleavage kobs at 640 uM GlcN6P” value with glucosamine-6-phosphate [4] came out at 4.52e-05 ± 9.2e-06 s⁻¹. Further, the “self-cleavage kobs at 2500 uM GlcN6P” value with glucosamine-6-phosphate [5] turned out to be 0.000107 ± 1e-05 s⁻¹. Besides, the “self-cleavage kobs at 10000 uM GlcN6P” value with glucosamine-6-phosphate [6] was found to be 0.000207 ± 2.8e-05 s⁻¹.

As to G51U G60C, the kcat with glucosamine-6-phosphate [1] was found to be 1.97e-05 ± 5.9e-06 s⁻¹.

For the variant G63A C68G, the catalytic constant (kcat) with glucosamine-6-phosphate [1] worked out at 1.26e-05 ± 3.4e-06 s⁻¹.

Take G37A G43U: the kcat with glucosamine-6-phosphate [1] was 4.94e-05 ± 4.8e-06 s⁻¹. In addition, the KM with glucosamine-6-phosphate [3] is 620 ± 300 µM. Moreover, the “self-cleavage kobs at 40 uM GlcN6P” value in the data set with glucosamine-6-phosphate [2] is under 1e-05 s⁻¹. For the same variant, in the data set with glucosamine-6-phosphate [7], the “self-cleavage kobs at 160 uM GlcN6P” value is under 1e-05 s⁻¹. For the same variant, the “self-cleavage kobs at 2500 uM GlcN6P” value in the data set with glucosamine-6-phosphate [5] is 4.23e-05 ± 7.6e-06 s⁻¹. The “self-cleavage kobs at 10000 uM GlcN6P” value with glucosamine-6-phosphate [6] is 4.34e-05 ± 1.1e-05 s⁻¹.

With C10A A12U C71U, the kcat in the data set with glucosamine-6-phosphate [1] amounted to 1.55e-05 ± 6.5e-07 s⁻¹. The KM with glucosamine-6-phosphate [3] was found to be 21.5 ± 9.2 µM.

Regarding G37A U47G, the kcat with glucosamine-6-phosphate [1] stood at 0.000419 ± 0.0001 s⁻¹. For the same variant, in the data set with glucosamine-6-phosphate [3], the KM was determined as 1250 ± 600 µM. Moreover, the “self-cleavage kobs at 160 uM GlcN6P” value in the data set with glucosamine-6-phosphate [7] is 9.69e-05 ± 1.9e-05 s⁻¹. Further, the “self-cleavage kobs at 640 uM GlcN6P” value with glucosamine-6-phosphate [4] was determined as 0.000127 ± 1.6e-05 s⁻¹. In the data set with glucosamine-6-phosphate [5], the “self-cleavage kobs at 2500 uM GlcN6P” value worked out at 0.000274 ± 4.4e-05 s⁻¹. For the same variant, the “self-cleavage kobs at 10000 uM GlcN6P” value with glucosamine-6-phosphate [6] was found to be 0.000396 ± 5.4e-05 s⁻¹.

As for G51U A52G, in the data set with glucosamine-6-phosphate [1], the kcat is under 1e-05 s⁻¹. Moreover, in the data set with glucosamine-6-phosphate [2], the “self-cleavage kobs at 40 uM GlcN6P” value was under 1e-05 s⁻¹. Also, in the data set with glucosamine-6-phosphate [4], the “self-cleavage kobs at 640 uM GlcN6P” value was under 1e-05 s⁻¹. Further, the “self-cleavage kobs at 2500 uM GlcN6P” value in the data set with glucosamine-6-phosphate [5] is under 1e-05 s⁻¹.
